The target of the assay is SARS-CoV-2 spike protein, extracellular domain (1-1213), recombinant from HEK293 cells (SARS-CoV-2) (UniProt P0DTC2).

What is called Kd is the free concentration of one partner at which half of the binding sites on the other are occupied at equilibrium, for simple one-to-one binding. What is called koff is the first-order rate constant of dissociation. The kon is the second-order rate constant of association. As for “HZI 2-09 (Anlec in TBS; lectin batch isolated from bromelain)”, the Kd stood at 8.25 µM, the off-rate (koff) worked out at 0.003 s⁻¹ and the kon came out at 331 M⁻¹ s⁻¹.
